# Results as given in patent US20240317834A1, “COMPOSITIONS AND METHODS FOR NEUROLOGICAL DISEASES” (CODA BIOTHERAPEUTICS, INC., priority 2020, published 2024).
# Positions count from the first letter of the chain named. Names may count otherwise.
# B1: CODA236: engineered chimeric LGIC receptor, R101F in SEQ ID NO: 33 (protein)
# chain: MRCSPGGVWLALAASLLHVSLQGEFQRKLYKELVKNYNPLERPVANDSQPLTVYFSLSLLQIMDVDEKNQVLTTNIWLQMSWTDHYLQWNVSEYPGVKTVFFPDGQIWKPDILLYNSADERFDATFHTNVLVNSSGHCQYLPPGIFKSSCPMDLKNFPMDVQTCKLKFGSWSYGGWSLDLQMQEADISGYIPNGEWDLVGIPGKRSERFYECCKEPYPDVTFTVTMRRRMGYYLIQMYIPSLLIVILSWISFWINMDAAPARVGLGITTVLTMTTQSSGSRASLPKVSYVKAIDIWMAVCLLFVFSALLEYAAVNFVSRQHKELLRFRRKRRHHKSPMLNLFQEDEAGEGRFNFSAYGMGPACLQAKDGISVKGANNSNTTNPPPAPSKSPEEMRKLFIQRAKKIDKISRIGFPMAFLIFNMFYWIIYKIVRREDVHNQ
# modifications: synthetic sequence of chimeric LGIC
# B2: CODA238: engineered chimeric LGIC receptor, R101W in SEQ ID NO: 33 (protein)
# chain: B1 chain with F101W
# modifications: synthetic sequence of chimeric LGIC
# B3: CODA237: engineered chimeric LGIC receptor, R101M in SEQ ID NO: 33 (protein)
# chain: B1 chain with F101M
# modifications: synthetic sequence of chimeric LGIC
# Tested on: Lenti-X 293T cells
# Assay: YFP fluorescence quenching anion reporter plate reader assay of engineered receptors stimulated with acetylcholine or a non-native ligand
# Type: cell-based
# Conditions: 1 nM CNL001, first column
# Source text: To screen these mutant LGICs for those having novel response profiles to ligands, an anion reporter assay was developed to assess the function of the LGICs in a high throughput format. In this assay, cells expressing a YFP reporter whose fluorescence is quenched in the presence of anion are transfected with DNA encoding the channel of interest. Upon exposure to ligand, channels that are activated will flux anion, resulting in a dose-dependent quench of the YFP that can be detected on a plate reader. The greater the quench signal (i.e., the more positive the value), the higher the ligand activity on the receptor is.
# Lenti-X 293T cells (LX293T, Clontech) were maintained in DMEM containing 10% FBS and 1% penicillin/streptomycin (Invitrogen). […] Two days before assay, cells were split at a density of 20,000 cells/well in a 96-well tissue culture plate coated with poly-d lysine (Thermo Scientific). The next day, the cells were transiently transfected with 0.1 μg of DNA per well using standard Fugene protocol (Promega). On the day of assay, cells were washed 2 times in 1× extracellular solution (1×ECS: 140 mM NaCl, 5 mM KCl, 1 mM MgCl2, 2 mM CaCl2), 10 mM HEPES, 10 mM glucose, pH 7.2, mOsms 300). After the last wash, 100 μL of 1×ECS was added to the wells and the plate was incubated at 37° C. for 30 min. While incubating the plate, the drugs were diluted to a 2× concentration in 1×ECS-NaI (same components as 1×ECS except the 140 mM NaCl was replaced by 140 mM NaI). The plates were then read on a Flexstation3 (Molecular Devices). Each well, 8 wells at a time, of the plate is read for 2 min using a Flexstation3 (Molecular Devices) as follows: 1) a baseline YFP fluorescence is read for 17 sec, 2) 100 μL of ligand is added, and 3) the changes in YFP fluorescence are then measured every 1.3 sec for 1 minute and 43 seconds. The percent quench is calculated from the average fluorescence of the last 10 seconds of the read divided by the baseline average of the first 15 seconds prior to the ligand addition.
# FIGS. 1A-1J provide heat maps of the percent quench of YFP fluorescence following stimulation by various doses of either acetylcholine or the non-native ligand as indicated in the Figures. CODA71 (SEQ ID NO: 33) was used as a control, and CODA75 (SEQ ID NO: 29, a non-responding chimeric engineered receptor) was used as the negative control. Quenching of the fluorescence signal, as indicated by blue shaded cells, indicate the level of engineered receptor activation by the non-native ligand at that concentration.
row,Molecule,YFP fluorescence quenching using CNL001
1,B1,9.048%
2,B2,32.42%
3,B3,−2.114%

# Same assay, conditions: 1 nM CNL001, second column
row,Molecule,YFP fluorescence quenching using CNL001
1,B1,26.601%
2,B2,54.768%
3,B3,−5.079%

# Same assay, conditions: 3 nM brd
row,Molecule,YFP fluorescence quenching using TC-5619/Bradanicline
1,B1,49.33%
2,B2,74.7%
3,B3,−14.87%

# Same assay, conditions: 3 nM var, first column
row,Molecule,YFP fluorescence quenching using Varenicline
1,B1,19.949
2,B2,17.896
3,B3,18.429

# Same assay, conditions: 3 nM var, second column
row,Molecule,YFP fluorescence quenching using Varenicline
1,B1,22.334
2,B2,12.564
3,B3,16.83

# Same assay, conditions: 10 nM CNL001, first column
row,Molecule,YFP fluorescence quenching using CNL001
1,B1,71.533%
2,B2,75.149%
3,B3,15.096%

# Same assay, conditions: 10 nM CNL001, second column
row,Molecule,YFP fluorescence quenching using CNL001
1,B1,72.948%
2,B2,75.339%
3,B3,50.554%

# Same assay, conditions: 30 nM brd
row,Molecule,YFP fluorescence quenching using TC-5619/Bradanicline
1,B1,77.38%
2,B2,76.78%
3,B3,69.93%

# Same assay, conditions: 30 nM fac
row,Molecule,YFP fluorescence quenching using Facinicline
1,B1,−28.54
2,B2,−19.61
3,B3,−24.14

# Same assay, conditions: 30 nM var, first column
row,Molecule,YFP fluorescence quenching using Varenicline
1,B1,15.764
2,B2,16.263
3,B3,23.07

# Same assay, conditions: 30 nM var, second column
row,Molecule,YFP fluorescence quenching using Varenicline
1,B1,16.213
2,B2,22.117
3,B3,15.868

# Same assay, conditions: 50 nM CNL001, first column
row,Molecule,YFP fluorescence quenching using CNL001
1,B1,75.895%
2,B2,75.881%
3,B3,66.585%

# Same assay, conditions: 50 nM CNL001, second column
row,Molecule,YFP fluorescence quenching using CNL001
1,B1,74.238%
2,B2,77.844%
3,B3,74.462%

# Same assay, conditions: 50 nM abt
row,Molecule,YFP fluorescence quenching using ABT-126
1,B1,−18.69%
2,B2,−14.97%
3,B3,−24.34%

# Same assay, conditions: 100 nM CNL001, first column
row,Molecule,YFP fluorescence quenching using CNL001
1,B1,76%
2,B2,78%
3,B3,78%

# Same assay, conditions: 100 nM CNL001, second column
row,Molecule,YFP fluorescence quenching using CNL001
1,B1,75.861%
2,B2,78.575%
3,B3,77.411%

# Same assay, conditions: 100 nM CNL002
row,Molecule,YFP fluorescence quenching using CNL002
1,B1,−9.56%
2,B2,2.95%
3,B3,−8.68%

# Same assay, conditions: 100 nM abt
row,Molecule,YFP fluorescence quenching using ABT-126
1,B1,−23.01%
2,B2,−14.66%
3,B3,−20.22%

# Same assay, conditions: 100 nM azd0328
row,Molecule,YFP fluorescence quenching using AZD-0328
1,B1,−9.78%
2,B2,22.94%
3,B3,−17.84%

# Same assay, conditions: 300 nM abt
row,Molecule,YFP fluorescence quenching using ABT-126
1,B1,−20.92%
2,B2,−16.35%
3,B3,−20.57%

# Same assay, conditions: 300 nM azd0328
row,Molecule,YFP fluorescence quenching using AZD-0328
1,B1,49.64%
2,B2,75.38%
3,B3,−11.98%

# Same assay, conditions: 300 nM brd
row,Molecule,YFP fluorescence quenching using TC-5619/Bradanicline
1,B1,77.51%
2,B2,77.01%
3,B3,76.57%

# Same assay, conditions: 300 nM fac
row,Molecule,YFP fluorescence quenching using Facinicline
1,B1,72.98
2,B2,76.54
3,B3,−14.38

# Same assay, conditions: 300 nM var, first column
row,Molecule,YFP fluorescence quenching using Varenicline
1,B1,23.135
2,B2,77.492
3,B3,18.819

# Same assay, conditions: 300 nM var, second column
row,Molecule,YFP fluorescence quenching using Varenicline
1,B1,22.987
2,B2,79.056
3,B3,19.155

# Same assay, conditions: 500 nM var, first column
row,Molecule,YFP fluorescence quenching using Varenicline
1,B1,35.048
2,B2,80.186
3,B3,19.117

# Same assay, conditions: 500 nM var, second column
row,Molecule,YFP fluorescence quenching using Varenicline
1,B1,34.188
2,B2,80.065
3,B3,22.593

# Same assay, conditions: 1 uM CNL001, first column
row,Molecule,YFP fluorescence quenching using CNL001
1,B1,76.367%
2,B2,81.126%
3,B3,79.06%

# Same assay, conditions: 1 uM CNL001, second column
row,Molecule,YFP fluorescence quenching using CNL001
1,B1,76.162%
2,B2,79.482%
3,B3,79.162%

# Same assay, conditions: 1 uM CNL002
row,Molecule,YFP fluorescence quenching using CNL002
1,B1,56.9%
2,B2,67.93%
3,B3,−2.24%

# Same assay, conditions: 1 uM abt
row,Molecule,YFP fluorescence quenching using ABT-126
1,B1,4.99%
2,B2,50.02%
3,B3,−19.55%

# Same assay, conditions: 1 uM tc6987
row,Molecule,YFP fluorescence quenching using TC-6987
1,B1,45.34
2,B2,72.47
3,B3,−21.62

# Same assay, conditions: 1 uM var, first column
row,Molecule,YFP fluorescence quenching using Varenicline
1,B1,71.031
2,B2,81.263
3,B3,24.525

# Same assay, conditions: 1 uM var, second column
row,Molecule,YFP fluorescence quenching using Varenicline
1,B1,71.005
2,B2,80.702
3,B3,23.383

# Same assay, conditions: 10 uM tc6987
row,Molecule,YFP fluorescence quenching using TC-6987
1,B1,70.04
2,B2,72.04
3,B3,21.52

# Same assay, conditions: 30 uM CNL002
row,Molecule,YFP fluorescence quenching using CNL002
1,B1,70.28%
2,B2,73.02%
3,B3,66.99%

# Same assay, conditions: 30 uM azd0328
row,Molecule,YFP fluorescence quenching using AZD-0328
1,B1,81.14%
2,B2,81.8%
3,B3,81.2%

# Same assay, conditions: 30 uM fac
row,Molecule,YFP fluorescence quenching using Facinicline
1,B1,87.6
2,B2,87.94
3,B3,88.78

# Same assay, conditions: 500 uM tc6987
row,Molecule,YFP fluorescence quenching using TC-6987
1,B1,75.86
2,B2,76.56
3,B3,60.33

# Same assay, conditions: acetylcholine 10 uM
row,Molecule,"percent quench of YFP fluorescence, 10 uM ach"
1,B1,−18.24%
2,B2,−16.58%
3,B3,−16.79%

# Same assay, conditions: acetylcholine 100 uM
row,Molecule,"percent quench of YFP fluorescence, 100 uM ach"
1,B1,60%
2,B2,75.18%
3,B3,−18.63%

# Same assay, conditions: acetylcholine 1 mM
row,Molecule,"percent quench of YFP fluorescence, 1 mM ach"
1,B1,66.07%
2,B2,78.99%
3,B3,46.28%

# Same assay, conditions: acetylcholine 3 mM
row,Molecule,"percent quench of YFP fluorescence, 3 mM ach"
1,B1,71.38%
2,B2,75.74%
3,B3,69.31%
